According to US20050054835A1 (XOMA TECHNOLOGY, published 2005):

Target: T1, human CD5 cell differentiation marker (human, UniProt P06127 25-495)
T1 sequence: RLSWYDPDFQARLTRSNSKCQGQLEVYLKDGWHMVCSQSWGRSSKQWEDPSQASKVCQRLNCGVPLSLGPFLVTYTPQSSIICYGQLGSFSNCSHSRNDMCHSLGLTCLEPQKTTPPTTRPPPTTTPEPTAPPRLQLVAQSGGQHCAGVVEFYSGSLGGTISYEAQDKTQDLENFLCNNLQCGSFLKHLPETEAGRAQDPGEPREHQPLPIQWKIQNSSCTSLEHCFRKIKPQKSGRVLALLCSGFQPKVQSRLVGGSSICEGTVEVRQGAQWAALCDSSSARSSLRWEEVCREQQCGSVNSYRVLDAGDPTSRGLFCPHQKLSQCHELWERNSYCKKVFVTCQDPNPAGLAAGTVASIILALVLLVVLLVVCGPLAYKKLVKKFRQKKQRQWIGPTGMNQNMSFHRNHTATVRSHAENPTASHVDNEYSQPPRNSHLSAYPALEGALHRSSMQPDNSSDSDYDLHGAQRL
Assay: cell-based or functional assay

B1: he3Fab-rGelA50(C44) (other, not shown: a dimerising Fc or GST)
heavy: EIQLVQSGGGLVKPGGSVRISCAASGYTFTNYGMNWVRQAPGKGLEWMGWINTHTGEPTYADSFKGRFTFSLDDSKNTAYLQINSLRAEDTAVYFCTRRGYDWYFDVWGQGTTVTVSS
light: DIQMTQSPSSLSASVGDRVTITCRASQDINSYLSWFQQKPGKAPKTLIYRANRLESGVPSRFSGSGSGTDYTLTISSLQYEDFGIYYCQQYDESPWTFGGGTKLEIK
chain: GLDTVSFSTKGATYITYVNFLNELRVKLKPEGNSHGIPLLRKKCDDPGKAFVLVALSNDNGQLAEIAIDVTSVYVVGYQVRNRSYFFKDAPDAAYEGLFKNTIKTRLHFGGSYPSLEGEKAYRETTDLGIEPLRIGIKKLDENAIDNYKPTEIASSLLVVIQMVSEAARFTFIENQIRNNFQQRIRPANNTISLENKWGKLSFQIRTSGANGMFSEAVELERANGKKYYVTAVDQVKPKIALLKFVDKDPK
modifications: Cys 44 disulfide-linked through an M2IT linker to the Fab
IC50, whole cell cytotoxicity (inhibition of protein synthesis), CEM cells: 173 pM T | IC50, whole cell cytotoxicity (inhibition of protein synthesis), HSB2 cells: 165 pM T
